Experimental data taken from paper PMC13140691.

Target: GST-LcGLO1 (litchi)

## His-PlAvh133 (natural protein)
  enzymatic activity of His-LcGLO1 in vitro (glycolate oxidase assay, H2O2 read at 520 nm, 30°C) with His-PlAvh133 added: 40 % inhibition
